Experimental data from publication PMC2409435 (Nature, 2007).

Target: Recombinant MRE11-RAD50-NBS1 (MRN) complex (human | , UniProt P49959 1-708; Q92878 1-1312; O60934 1-754)
Assay: co-IP

Sequence of Recombinant MRE11-RAD50-NBS1 (MRN) complex (P49959 whole entry, chain 1 of 3): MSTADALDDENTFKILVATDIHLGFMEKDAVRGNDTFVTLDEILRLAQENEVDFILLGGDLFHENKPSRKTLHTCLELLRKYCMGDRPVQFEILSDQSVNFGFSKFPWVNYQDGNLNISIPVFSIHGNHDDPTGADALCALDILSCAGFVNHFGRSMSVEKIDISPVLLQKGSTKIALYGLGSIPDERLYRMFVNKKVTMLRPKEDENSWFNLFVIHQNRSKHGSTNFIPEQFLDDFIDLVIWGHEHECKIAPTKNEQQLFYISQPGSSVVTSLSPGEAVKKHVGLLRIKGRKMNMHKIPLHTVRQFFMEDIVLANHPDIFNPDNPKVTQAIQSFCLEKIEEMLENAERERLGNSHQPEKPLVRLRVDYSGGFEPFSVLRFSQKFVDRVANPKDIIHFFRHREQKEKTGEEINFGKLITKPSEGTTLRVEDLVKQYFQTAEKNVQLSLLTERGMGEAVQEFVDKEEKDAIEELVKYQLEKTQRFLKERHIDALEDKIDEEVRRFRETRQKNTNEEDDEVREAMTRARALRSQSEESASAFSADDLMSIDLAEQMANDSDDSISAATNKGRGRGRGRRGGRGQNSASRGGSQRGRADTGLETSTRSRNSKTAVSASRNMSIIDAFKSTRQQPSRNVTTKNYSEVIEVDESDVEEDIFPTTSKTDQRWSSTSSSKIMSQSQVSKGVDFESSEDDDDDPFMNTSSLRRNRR
Sequence of Recombinant MRE11-RAD50-NBS1 (MRN) complex (Q92878 whole entry, chain 2 of 3): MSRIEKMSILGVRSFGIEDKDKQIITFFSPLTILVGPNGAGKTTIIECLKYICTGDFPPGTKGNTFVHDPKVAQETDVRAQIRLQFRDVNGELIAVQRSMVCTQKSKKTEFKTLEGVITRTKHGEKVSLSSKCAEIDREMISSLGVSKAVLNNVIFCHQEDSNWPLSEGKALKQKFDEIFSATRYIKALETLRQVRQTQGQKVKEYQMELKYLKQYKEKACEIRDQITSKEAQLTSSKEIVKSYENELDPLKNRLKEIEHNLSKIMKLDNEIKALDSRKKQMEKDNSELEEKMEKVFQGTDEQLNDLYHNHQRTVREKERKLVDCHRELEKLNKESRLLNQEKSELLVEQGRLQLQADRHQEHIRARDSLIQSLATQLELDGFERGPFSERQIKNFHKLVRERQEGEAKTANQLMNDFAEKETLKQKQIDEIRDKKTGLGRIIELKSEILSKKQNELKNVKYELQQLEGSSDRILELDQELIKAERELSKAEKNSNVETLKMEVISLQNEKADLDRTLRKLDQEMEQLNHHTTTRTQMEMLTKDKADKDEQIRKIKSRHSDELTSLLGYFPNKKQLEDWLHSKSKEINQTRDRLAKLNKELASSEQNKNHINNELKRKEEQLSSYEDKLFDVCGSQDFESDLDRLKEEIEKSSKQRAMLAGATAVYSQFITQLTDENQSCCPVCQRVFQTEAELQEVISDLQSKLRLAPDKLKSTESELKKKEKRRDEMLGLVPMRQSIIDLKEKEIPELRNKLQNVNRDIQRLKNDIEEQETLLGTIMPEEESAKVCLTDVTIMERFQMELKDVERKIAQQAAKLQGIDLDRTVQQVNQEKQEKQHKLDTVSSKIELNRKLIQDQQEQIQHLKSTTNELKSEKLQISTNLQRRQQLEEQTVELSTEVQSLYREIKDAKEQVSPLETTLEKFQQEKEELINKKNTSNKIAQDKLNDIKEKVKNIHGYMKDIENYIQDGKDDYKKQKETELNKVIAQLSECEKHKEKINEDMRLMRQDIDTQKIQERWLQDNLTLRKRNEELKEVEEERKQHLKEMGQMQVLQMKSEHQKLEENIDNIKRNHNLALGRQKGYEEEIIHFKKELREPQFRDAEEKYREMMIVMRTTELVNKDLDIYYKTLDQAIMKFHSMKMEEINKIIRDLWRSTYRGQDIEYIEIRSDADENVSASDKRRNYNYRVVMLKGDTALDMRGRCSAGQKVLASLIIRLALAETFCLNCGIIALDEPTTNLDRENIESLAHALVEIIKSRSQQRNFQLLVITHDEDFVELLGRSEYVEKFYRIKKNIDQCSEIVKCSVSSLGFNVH
Sequence of Recombinant MRE11-RAD50-NBS1 (MRN) complex (O60934 whole entry, chain 3 of 3): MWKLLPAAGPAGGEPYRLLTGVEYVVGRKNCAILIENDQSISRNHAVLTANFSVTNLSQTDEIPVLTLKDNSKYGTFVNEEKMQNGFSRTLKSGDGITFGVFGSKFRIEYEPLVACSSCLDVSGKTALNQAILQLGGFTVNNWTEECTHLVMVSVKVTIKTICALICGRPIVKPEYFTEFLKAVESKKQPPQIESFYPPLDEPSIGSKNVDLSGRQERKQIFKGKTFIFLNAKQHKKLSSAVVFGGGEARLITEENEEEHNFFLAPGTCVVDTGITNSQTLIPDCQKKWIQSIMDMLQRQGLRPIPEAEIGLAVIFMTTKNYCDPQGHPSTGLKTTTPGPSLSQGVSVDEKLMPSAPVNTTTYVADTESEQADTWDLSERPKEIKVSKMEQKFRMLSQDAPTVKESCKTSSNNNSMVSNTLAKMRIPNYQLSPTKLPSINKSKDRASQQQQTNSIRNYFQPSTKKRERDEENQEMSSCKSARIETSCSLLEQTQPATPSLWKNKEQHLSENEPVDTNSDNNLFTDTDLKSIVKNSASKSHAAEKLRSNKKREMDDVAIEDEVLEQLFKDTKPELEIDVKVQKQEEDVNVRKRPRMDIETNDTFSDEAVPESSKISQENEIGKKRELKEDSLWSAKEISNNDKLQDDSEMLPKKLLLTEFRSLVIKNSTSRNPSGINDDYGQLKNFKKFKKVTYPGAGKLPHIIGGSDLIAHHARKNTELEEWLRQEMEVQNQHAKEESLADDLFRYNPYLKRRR

binding result: binds
B1: Recombinant FLAG-GST-CtIP-6H (natural protein, human, UniProt Q99708 1-897, looked up)
chain: MNISGSSCGSPNSADTSSDFKDLWTKLKECHDREVQGLQVKVTKLKQERILDAQRLEEFFTKNQQLREQQKVLHETIKVLEDRLRAGLCDRCAVTEEHMRKKQQEFENIRQQNLKLITELMNERNTLQEENKKLSEQLQQKIENDQQHQAAELECEEDVIPDSPITAFSFSGVNRLRRKENPHVRYIEQTHTKLEHSVCANEMRKVSKSSTHPQHNPNENEILVADTYDQSQSPMAKAHGTSSYTPDKSSFNLATVVAETLGLGVQEESETQGPMSPLGDELYHCLEGNHKKQPFEESTRNTEDSLRFSDSTSKTPPQEELPTRVSSPVFGATSSIKSGLDLNTSLSPSLLQPGKKKHLKTLPFSNTCISRLEKTRSKSEDSALFTHHSLGSEVNKIIIQSSNKQILINKNISESLGEQNRTEYGKDSNTDKHLEPLKSLGGRTSKRKKTEEESEHEVSCPQASFDKENAFPFPMDNQFSMNGDCVMDKPLDLSDRFSAIQRQEKSQGSETSKNKFRQVTLYEALKTIPKGFSSSRKASDGNCTLPKDSPGEPCSQECIILQPLNKCSPDNKPSLQIKEENAVFKIPLRPRESLETENVLDDIKSAGSHEPIKIQTRSDHGGCELASVLQLNPCRTGKIKSLQNNQDVSFENIQWSIDPGADLSQYKMDVTVIDTKDGSQSKLGGETVDMDCTLVSETVLLKMKKQEQKGEKSSNEERKMNDSLEDMFDRTTHEEYESCLADSFSQAADEEEELSTATKKLHTHGDKQDKVKQKAFVEPYFKGDERETSLQNFPHIEVVRKKEERRKLLGHTCKECEIYYADMPAEEREKKLASCSRHRFRYIPPNTPENFWEVGFPSTQTCMERGYIKEDLDPCPRPKRRQPYNAIFSPKGKEQKT
